Publication PMC9482650, “Quantitative fragmentomics allow affinity mapping of interactomes” (Nature Communications, 2022)

T1: NHERF3_2, Q5T2W1
T1 sequence (Q5T2W1 129-225, limits assumed, looked up): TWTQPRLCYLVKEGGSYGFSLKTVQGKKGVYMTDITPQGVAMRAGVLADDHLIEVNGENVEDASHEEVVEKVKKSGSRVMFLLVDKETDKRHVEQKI

T2: LIN7C, Q9NUP9
T2 sequence (Q9NUP9 88-185, limits assumed, looked up): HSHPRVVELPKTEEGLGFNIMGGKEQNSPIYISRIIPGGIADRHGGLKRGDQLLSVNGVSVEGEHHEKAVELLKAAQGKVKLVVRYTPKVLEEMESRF

T3: SYNPO2L, Q9H987
T3 sequence (Q9H987 1-98, limits assumed, looked up): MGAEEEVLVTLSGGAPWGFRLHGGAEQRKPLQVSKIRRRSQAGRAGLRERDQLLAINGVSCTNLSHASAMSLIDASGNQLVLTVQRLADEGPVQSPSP

T4: PDLIM3, Q53GG5
T4 sequence (Q53GG5 1-94, limits assumed, looked up): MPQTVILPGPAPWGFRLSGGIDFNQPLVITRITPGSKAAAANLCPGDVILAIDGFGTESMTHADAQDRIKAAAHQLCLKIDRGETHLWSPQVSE

T5: PARD6G, Q9BYG4
T5 sequence (Q9BYG4 153-261, limits assumed, looked up): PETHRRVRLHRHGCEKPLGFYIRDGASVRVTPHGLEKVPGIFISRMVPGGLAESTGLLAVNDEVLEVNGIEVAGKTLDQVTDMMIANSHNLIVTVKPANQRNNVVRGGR

T6: MPDZ_7, O75970
T6 sequence (O75970 1146-1253, limits assumed, looked up): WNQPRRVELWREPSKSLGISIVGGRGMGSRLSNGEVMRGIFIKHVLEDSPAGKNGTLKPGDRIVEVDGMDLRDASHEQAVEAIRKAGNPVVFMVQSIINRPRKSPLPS

T7: PDZD2_1, O15018
T7 sequence (O15018 80-192, limits assumed, looked up): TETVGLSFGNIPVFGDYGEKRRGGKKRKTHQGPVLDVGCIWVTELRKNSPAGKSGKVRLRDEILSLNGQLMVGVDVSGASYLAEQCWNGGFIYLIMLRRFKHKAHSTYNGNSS

T8: USH1C_1, Q9Y6N9
T8 sequence (Q9Y6N9 82-179, limits assumed, looked up): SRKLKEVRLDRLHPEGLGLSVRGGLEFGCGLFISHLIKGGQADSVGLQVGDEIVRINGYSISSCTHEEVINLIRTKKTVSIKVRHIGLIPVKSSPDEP

T9: MPP5, Q8N3R9
T9 sequence (Q8N3R9 251-346, limits assumed, looked up): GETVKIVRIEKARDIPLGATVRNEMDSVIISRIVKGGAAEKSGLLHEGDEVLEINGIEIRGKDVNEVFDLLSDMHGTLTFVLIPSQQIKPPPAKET

T10: DFNB31_2, Q9P202
T10 sequence (Q9P202 274-371, limits assumed, looked up): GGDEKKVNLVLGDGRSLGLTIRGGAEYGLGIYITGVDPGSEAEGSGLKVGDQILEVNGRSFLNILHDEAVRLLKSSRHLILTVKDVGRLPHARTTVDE

T11: PDZRN3_2, Q9UPQ7
T11 sequence (Q9UPQ7 414-513, limits assumed, looked up): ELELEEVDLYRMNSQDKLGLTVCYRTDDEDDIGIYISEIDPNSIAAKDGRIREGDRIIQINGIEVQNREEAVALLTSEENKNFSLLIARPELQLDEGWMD

T12: PDZD11, Q5EBL8
T12 sequence (Q5EBL8 42-139, limits assumed, looked up): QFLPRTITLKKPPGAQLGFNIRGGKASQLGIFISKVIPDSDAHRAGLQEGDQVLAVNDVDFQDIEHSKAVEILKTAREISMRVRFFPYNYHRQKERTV

T13: MPDZ_3, O75970
T13 sequence (O75970 372-473, limits assumed, looked up): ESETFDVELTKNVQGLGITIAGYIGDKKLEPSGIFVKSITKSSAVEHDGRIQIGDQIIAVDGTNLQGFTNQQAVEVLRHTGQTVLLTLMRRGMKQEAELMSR

T14: USH1C_3, Q9Y6N9
T14 sequence (Q9Y6N9 447-547, limits assumed, looked up): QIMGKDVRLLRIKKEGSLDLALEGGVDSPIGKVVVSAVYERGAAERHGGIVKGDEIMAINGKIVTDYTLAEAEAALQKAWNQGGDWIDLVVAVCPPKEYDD


target: T1, NHERF3_2, Q5T2W1; experiment: holdup assay; design: key: below the threshold = too weak to quantify, mostly under pKd 3.1 to 4; details: plain residues with an end cap or a label only (N-terminal biotin on a linker: ttds)

| Binder | pKd |
| --- | --- |
| CLDTSRETDL [KCNA5, P22460] | below the threshold |

target: RIMS2, Q9UQ26; experiment: holdup assay; design: key: below the threshold = too weak to quantify, mostly under pKd 3.1 to 4; details: plain residues with an end cap or a label only (N-terminal biotin on a linker: ttds)
Sequence (Q9UQ26 637-758): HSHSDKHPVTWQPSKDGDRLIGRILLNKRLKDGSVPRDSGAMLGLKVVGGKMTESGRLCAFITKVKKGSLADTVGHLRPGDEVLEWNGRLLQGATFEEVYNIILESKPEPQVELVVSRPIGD

| Binder | pKd |
| --- | --- |
| CLDTSRETDL [KCNA5, P22460] | below the threshold |

target: T2, LIN7C, Q9NUP9; experiment: holdup assay; design: key: below the threshold = too weak to quantify, mostly under pKd 3.1 to 4; details: plain residues with an end cap or a label only (N-terminal biotin on a linker: ttds)

| Binder | pKd |
| --- | --- |
| CLDTSRETDL [KCNA5, P22460] | 3.74 |

target: DVL2, O14641; experiment: holdup assay; design: key: below the threshold = too weak to quantify, mostly under pKd 3.1 to 4; details: plain residues with an end cap or a label only (N-terminal biotin on a linker: ttds)
Sequence (O14641 260-359): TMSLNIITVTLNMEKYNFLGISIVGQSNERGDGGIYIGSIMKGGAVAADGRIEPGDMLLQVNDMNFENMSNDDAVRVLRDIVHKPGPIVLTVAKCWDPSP

| Binder | pKd |
| --- | --- |
| CLDTSRETDL [KCNA5, P22460] | below the threshold |

target: T3, SYNPO2L, Q9H987; experiment: holdup assay; design: key: below the threshold = too weak to quantify, mostly under pKd 3.1 to 4; details: plain residues with an end cap or a label only (N-terminal biotin on a linker: ttds)

| Binder | pKd |
| --- | --- |
| CLDTSRETDL [KCNA5, P22460] | below the threshold |

target: T4, PDLIM3, Q53GG5; experiment: holdup assay; design: key: below the threshold = too weak to quantify, mostly under pKd 3.1 to 4; details: plain residues with an end cap or a label only (N-terminal biotin on a linker: ttds)

| Binder | pKd |
| --- | --- |
| CLDTSRETDL [KCNA5, P22460] | below the threshold |

target: Inadl_7, Q8NI35; experiment: holdup assay; design: key: below the threshold = too weak to quantify, mostly under pKd 3.1 to 4; details: plain residues with an end cap or a label only (N-terminal biotin on a linker: ttds)
Sequence (Q8NI35 1219-1332): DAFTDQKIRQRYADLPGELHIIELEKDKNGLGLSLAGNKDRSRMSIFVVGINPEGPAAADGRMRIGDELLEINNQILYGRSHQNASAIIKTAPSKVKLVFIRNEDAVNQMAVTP

| Binder | pKd |
| --- | --- |
| CLDTSRETDL [KCNA5, P22460] | below the threshold |

target: T5, PARD6G, Q9BYG4; experiment: holdup assay; design: key: below the threshold = too weak to quantify, mostly under pKd 3.1 to 4; details: plain residues with an end cap or a label only (N-terminal biotin on a linker: ttds)

| Binder | pKd |
| --- | --- |
| CLDTSRETDL [KCNA5, P22460] | below the threshold |

target: T6, MPDZ_7, O75970; experiment: holdup assay; design: key: below the threshold = too weak to quantify, mostly under pKd 3.1 to 4; details: plain residues with an end cap or a label only (N-terminal biotin on a linker: ttds)

| Binder | pKd |
| --- | --- |
| CLDTSRETDL [KCNA5, P22460] | below the threshold |

target: T7, PDZD2_1, O15018; experiment: holdup assay; design: key: below the threshold = too weak to quantify, mostly under pKd 3.1 to 4; details: plain residues with an end cap or a label only (N-terminal biotin on a linker: ttds)

| Binder | pKd |
| --- | --- |
| CLDTSRETDL [KCNA5, P22460] | below the threshold |

target: T8, USH1C_1, Q9Y6N9; experiment: holdup assay; design: key: below the threshold = too weak to quantify, mostly under pKd 3.1 to 4; details: plain residues with an end cap or a label only (N-terminal biotin on a linker: ttds)

| Binder | pKd |
| --- | --- |
| CLDTSRETDL [KCNA5, P22460] | below the threshold |

target: T9, MPP5, Q8N3R9; experiment: holdup assay; design: key: below the threshold = too weak to quantify, mostly under pKd 3.1 to 4; details: plain residues with an end cap or a label only (N-terminal biotin on a linker: ttds)

| Binder | pKd |
| --- | --- |
| CLDTSRETDL [KCNA5, P22460] | below the threshold |

target: T10, DFNB31_2, Q9P202; experiment: holdup assay; design: key: below the threshold = too weak to quantify, mostly under pKd 3.1 to 4; details: plain residues with an end cap or a label only (N-terminal biotin on a linker: ttds)

| Binder | pKd |
| --- | --- |
| CLDTSRETDL [KCNA5, P22460] | below the threshold |

target: MAGI3_6, Q5TCQ9; experiment: holdup assay; design: key: below the threshold = too weak to quantify, mostly under pKd 3.1 to 4; details: plain residues with an end cap or a label only (N-terminal biotin on a linker: ttds)
Sequence (Q5TCQ9 1014-1103): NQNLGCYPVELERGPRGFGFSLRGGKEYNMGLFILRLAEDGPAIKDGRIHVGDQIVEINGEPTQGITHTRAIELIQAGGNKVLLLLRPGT

| Binder | pKd |
| --- | --- |
| CLDTSRETDL [KCNA5, P22460] | 4.34 |

target: CNKSR3, Q6P9H4; experiment: holdup assay; design: key: below the threshold = too weak to quantify, mostly under pKd 3.1 to 4; details: plain residues with an end cap or a label only (N-terminal biotin on a linker: ttds)
Sequence (Q6P9H4 203-303): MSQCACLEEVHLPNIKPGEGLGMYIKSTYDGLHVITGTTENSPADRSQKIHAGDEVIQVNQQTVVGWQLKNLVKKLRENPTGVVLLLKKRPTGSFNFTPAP

| Binder | pKd |
| --- | --- |
| CLDTSRETDL [KCNA5, P22460] | below the threshold |

target: MAGI3_4, Q5TCQ9; experiment: holdup assay; design: key: below the threshold = too weak to quantify, mostly under pKd 3.1 to 4; details: plain residues with an end cap or a label only (N-terminal biotin on a linker: ttds)
Sequence (Q5TCQ9 716-815): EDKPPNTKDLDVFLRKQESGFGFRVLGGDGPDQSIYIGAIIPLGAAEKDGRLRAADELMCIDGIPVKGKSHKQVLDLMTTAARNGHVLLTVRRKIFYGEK

| Binder | pKd |
| --- | --- |
| CLDTSRETDL [KCNA5, P22460] | below the threshold |

target: T11, PDZRN3_2, Q9UPQ7; experiment: holdup assay; design: key: below the threshold = too weak to quantify, mostly under pKd 3.1 to 4; details: plain residues with an end cap or a label only (N-terminal biotin on a linker: ttds)

| Binder | pKd |
| --- | --- |
| CLDTSRETDL [KCNA5, P22460] | below the threshold |

target: T12, PDZD11, Q5EBL8; experiment: holdup assay; design: key: below the threshold = too weak to quantify, mostly under pKd 3.1 to 4; details: plain residues with an end cap or a label only (N-terminal biotin on a linker: ttds)

| Binder | pKd |
| --- | --- |
| CLDTSRETDL [KCNA5, P22460] | below the threshold |

target: T13, MPDZ_3, O75970; experiment: holdup assay; design: key: below the threshold = too weak to quantify, mostly under pKd 3.1 to 4; details: plain residues with an end cap or a label only (N-terminal biotin on a linker: ttds)

| Binder | pKd |
| --- | --- |
| CLDTSRETDL [KCNA5, P22460] | below the threshold |

target: PDZRN4_2, Q6ZMN7; experiment: holdup assay; design: key: below the threshold = too weak to quantify, mostly under pKd 3.1 to 4; details: plain residues with an end cap or a label only (N-terminal biotin on a linker: ttds)
Sequence (Q6ZMN7 389-498): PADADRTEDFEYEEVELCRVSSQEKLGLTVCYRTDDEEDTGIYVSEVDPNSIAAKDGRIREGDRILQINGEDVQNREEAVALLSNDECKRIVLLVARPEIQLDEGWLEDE

| Binder | pKd |
| --- | --- |
| CLDTSRETDL [KCNA5, P22460] | below the threshold |

target: T14, USH1C_3, Q9Y6N9; experiment: holdup assay; design: key: below the threshold = too weak to quantify, mostly under pKd 3.1 to 4; details: plain residues with an end cap or a label only (N-terminal biotin on a linker: ttds)

| Binder | pKd |
| --- | --- |
| CLDTSRETDL [KCNA5, P22460] | below the threshold |

target: PTPN13_2, Q12923; experiment: holdup assay; design: key: below the threshold = too weak to quantify, mostly under pKd 3.1 to 4; details: plain residues with an end cap or a label only (N-terminal biotin on a linker: ttds)
Sequence (Q12923 1363-1462): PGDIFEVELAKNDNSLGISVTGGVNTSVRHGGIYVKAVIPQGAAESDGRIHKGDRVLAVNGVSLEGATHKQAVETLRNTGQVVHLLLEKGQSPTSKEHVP

| Binder | pKd |
| --- | --- |
| CLDTSRETDL [KCNA5, P22460] | below the threshold |

target: NHERF2_1, Q15599; experiment: holdup assay; design: key: below the threshold = too weak to quantify, mostly under pKd 3.1 to 4; details: plain residues with an end cap or a label only (N-terminal biotin on a linker: ttds)
Sequence (Q15599 9-91): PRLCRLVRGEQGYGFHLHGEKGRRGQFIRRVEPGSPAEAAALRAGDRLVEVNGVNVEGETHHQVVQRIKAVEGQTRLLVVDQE

| Binder | pKd |
| --- | --- |
| CLDTSRETDL [KCNA5, P22460] | below the threshold |
